B1: Vipp1Δα6_(1–219) (Vipp1 with the C-terminal domain truncated) (domain or fragment, Nostoc punctiforme, UniProt B2J6D9 1-219, looked up)
chain: MGLFDRIKRVVSSNLNDLVNKAEDPEKMLEQAILEMQEDLVQLRQGVAQAIAAQKRSEKQYNDAQNEINKWQRNAQLALQKGDENLARQALERKKTYTDTSAALKASLDTQSTQVETLKRNLIQLESKISEAKTKKEMLKARITTAKAQEQLQGMVRGMNTSSAMSAFERMEEKVLMQESRAQALGELAGADLETQFAQLEGGSDVDDELAALKAQMLP
notes: model built for amino acids 1-217; also called Vipp1_(Δα6_L2); Vipp1_(Δα6_L3); source: E. coli C43 (DE3) with pspA gene knockout, purified (amylose resin, TEV, Ni-NTA, SEC); not shown: His6, N-terminal, cleaved; MBP, N-terminal, cleaved
B2: Vipp1 (vesicle-inducing protein in plastids 1) from Nostoc punctiforme (natural protein, UniProt B2J6D9 1-258, looked up)
chain: MGLFDRIKRVVSSNLNDLVNKAEDPEKMLEQAILEMQEDLVQLRQGVAQAIAAQKRSEKQYNDAQNEINKWQRNAQLALQKGDENLARQALERKKTYTDTSAALKASLDTQSTQVETLKRNLIQLESKISEAKTKKEMLKARITTAKAQEQLQGMVRGMNTSSAMSAFERMEEKVLMQESRAQALGELAGADLETQFAQLEGGSDVDDELAALKAQMLPPATPVTQAQLPPQQETTPAKSNEVVDAELDSLRKQLDQL
notes: Vipp1, Nostoc punctiforme, UniProt B2J6D9; model built for amino acids 1-214 in Vipp1L1; Forms polymers (helical filaments, rings, sheets, spirals); the number of subunits is not fixed; RingsHS are the same protein purified with 50 mM NaCl in the SEC buffer; also called IM30; native Vipp1; source: E. coli C43 (DE3) with pspA gene knockout, purified (amylose resin, TEV, Ni-NTA, SEC); not shown: …
B3: Vipp1-F197K/L200K (Vipp1 interface 3 mutant) (natural protein, Nostoc punctiforme, UniProt B2J6D9 1-258, looked up)
chain: MGLFDRIKRVVSSNLNDLVNKAEDPEKMLEQAILEMQEDLVQLRQGVAQAIAAQKRSEKQYNDAQNEINKWQRNAQLALQKGDENLARQALERKKTYTDTSAALKASLDTQSTQVETLKRNLIQLESKISEAKTKKEMLKARITTAKAQEQLQGMVRGMNTSSAMSAFERMEEKVLMQESRAQALGELAGADLETQKAQKEGGSDVDDELAALKAQMLPPATPVTQAQLPPQQETTPAKSNEVVDAELDSLRKQLDQL
notes: Vipp1, Nostoc punctiforme, UniProt B2J6D9, with F197K and L200K; Co-purified with E. coli membrane (lipid bilayer in the filament lumen); source: E. coli C43 (DE3) with pspA gene knockout, purified (amylose resin, TEV, Ni-NTA, SEC); not shown: His6, N-terminal, cleaved; MBP, N-terminal, cleaved

Biological target: the molecule itself
Assay: cryo-EM structure; helical filaments of purified protein, 60 µM, low-salt SEC buffer, helical reconstruction

Binding result, binds:
B1
B2
B3
